2 molecules from paper PMC4323418 can be followed below.

Where two headings read alike, the source gives them in different places.

For series [1], the target named is T1, CceR-6xHis (Rhodobacter sphaeroides 2.4.1, UniProt Q3J5X3 1-345).
T1 sequence: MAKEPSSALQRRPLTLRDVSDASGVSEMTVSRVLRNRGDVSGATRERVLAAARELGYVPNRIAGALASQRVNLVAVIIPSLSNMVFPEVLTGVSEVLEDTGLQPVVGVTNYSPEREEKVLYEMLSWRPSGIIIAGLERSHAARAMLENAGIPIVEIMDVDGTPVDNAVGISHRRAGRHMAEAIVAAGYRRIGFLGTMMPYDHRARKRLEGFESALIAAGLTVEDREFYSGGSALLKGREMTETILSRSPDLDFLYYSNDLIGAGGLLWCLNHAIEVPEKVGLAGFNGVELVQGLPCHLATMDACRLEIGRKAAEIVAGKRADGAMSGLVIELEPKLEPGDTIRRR
Briefly: EMSA.

The target in series [2] is T1, CceR-6xHis. Briefly: EMSA. This is another data set of the same source.

B1: bchF promoter fragment (dsDNA)
DNA 1: TCATCCAAGGAGGAACGCATGTCAAAGAAAATTGACACCTCAGGCAGCGGAGGCAGCCCATCCCCCGCTGAACTCACACTTAATCCTTGGATTTACGACAGAGTGTCGCAGCTTC
DNA 2: GAAGCTGCGACACTCTGTCGTAAATCCAAGGATTAAGTGTGAGTTCAGCGGGGGATGGGCTGCCTCCGCTGCCTGAGGTGTCAATTTTCTTTGACATGCGTTCCTCCTTGGATGA
As for B1, in the series with CceR-6xHis [1], the binding result is on record as “no binding”.

B2: zwf promoter fragment (dsDNA)
DNA 1: CGGGCGTCTTTCCACATTTACCCCGGCGGGGGGCGCGCTAGACTCGGGCCACGGCAGCCGCTAGAACGGCCGTTAGCGCTAACAGGCGAGGCAGC
DNA 2: GCTGCCTCGCCTGTTAGCGCTAACGGCCGTTCTAGCGGCTGCCGTGGCCCGAGTCTAGCGCGCCCCCCGCCGGGGTAAATGTGGAAAGACGCCCG
Consider B2, for which the binding result with CceR-6xHis [2] was “binds”.
